From the Human Domainome abundance scans (Beltran et al. 2025)

B1: Protein S100-G, residues 1 to 79; numbered along this chain, P02633 (parent)
chain: MSAKKSPEELKGIFEKYAAKEGDPNQLSKEELKLLLQTEFPSLLKGPSTLDELFEELDKNGDGEVSFEEFQVLVKKISQ

Variants of: B1
Assay: abundance fitness (aPCA) (normalised: wild type 0, dead -1); higher = more abundant; growth selection in yeast, the domain comes from the species named
Settings: Bos taurus

Abundance fitness: each site, then its substitutions
F40: N -0.084; M 0.047; A -0.189; P -0.889; Y -0.011; I 0.019; T -0.106; E -0.158; V -0.065; W 0.008; C -0.059; L -0.037; S -0.16; G -0.155; Q -0.178; K -0.218; D -0.099
E39: K -0.33; R -0.449; M -0.177; H -0.059; T -0.218; D -0.16; F -0.345; C -0.295; S -0.308; P -1.63; I -0.24; Q -0.21; V -0.304; A -0.515; N -0.138; Y -0.197; G -0.809; L -0.207; W -0.349
L43: K -0.001; C -0.018; Q 0.028; H -0.034; E 0.105; F -0.02; D -0.119; W -0.035; A 0.013; T -0.07; S 0.023; P -0.032; I -0.012; V 0.057; Y 0.015; R -0.077; M 0.011; N -0.094
K29: A 0.025; Y 0.12; E -0.14; V 0.038; S -0.006; G -0.078; T 0.007; D -0.007; F 0.017; L -0.008; N 0.07; I 0.056; M -0.057; R 0.027; Q -0.099; H 0.06; C 0.002
L35: N -1.04; D -1.44; W -0.313; C -0.064; F -0.164; Q -0.684; H -0.724; A 0.02; I 0.016; G -0.51; P -2.06; K -0.829; T -0.174; E -1.11; S -0.206; M 0.031
E31: V -0.033; N 0.023; F -0.123; P -0.022; G 0.015; M -0.007; L -0.045; T -0.175; I 0.032; H -0.016; A -0.108; R -0.064; D 0.054; Y -0.07; C -0.153; K -0.006; S 0.002; W -0.171
L27: V -0.02; T -0.335; S -0.611; W -0.936; Q -0.839; R -0.673; Y -0.764
P41: V -0.129; F -0.019; L -0.072; Q 0.025; S 0.055; Y -0.037; N -0.06; G 0.002; A 0.079; K 0.017; M -0.091; W -0.115; T 0.001; H 0.066; E -0.191; D -0.021; C -0.159; R -0.059
L32: A 0.027; I 0.067; H -0.951; V -0.067; F -0.048; K -1.03; R -0.874; Q -0.616; E -1.72; D -3.08; C -0.097; Y -0.205; P -2.71; S -0.138; W -0.209; T -0.054; N -0.673
E30: M 0.022; C -0.018; H -0.026; I -0.032; V 0.071; A -0.016; N 0.061; T -0.001; K -0.023; S 0.048; Q 0.04; G -0.057; W -0.074; P 0.026; D 0.073; Y -0.042; L -0.053; R 0.03; F -0.006
L34: K 0.027; D 0.113; R 0.05; V -0.031; F -0.036; T 0.023; C -0.045; S -0.04; E 0.054; N 0.041; G 0.035; I 0.018; Y -0.015; H 0.05; A 0.066
K45: L -0.018; T -0.005; D 0.07; V -0.029; N -0.022; H 0.003; Q 0.042; W -0.012; R 0.002; A -0.442; C -0.066; Y -0.062; P 0.003; E 0.005; M 0.002
S28: F -0.425; C -0.07; D 0.037; W -0.465; T -0.083; Y -0.277; L -0.208; H -0.041; V -0.156; N -0.049; I -0.282; K -0.048; Q -0.008; A 0; E -0.05; P -0.033; R -0.065; M -0.218
P47: C 0.04; F -0.015; A 0.094; D -0.02
T38: D 0.096; Q 0.008; N -0.056; G -0.1; I -0.004; W -0.194; C -0.034; H -0.045; M -0.045; P -0.642; V 0.014; R -0.082; F -0.002; L -0.073; Y -0.074; A 0.027
L36: C -0.099; E -1.37; S -0.499; F -0.008; V -0.01; Q -0.789; I -0.013; R -1.92; T -0.203; K -1.98; Y -0.209; H -1.08; D -2.17; G -0.589; W -0.076; A -0.1
G46: C -0.023; E -0.025; L 0.02; F -0.005; M 0.053; N 0.037; Y 0.011; A 0.042; I 0; D 0.028; H 0.039; W -0.087; P -0.041; S -0.017; Q -0.008; T 0.007; R -0.008; K -0.001
K33: V -0.016; N -0.016; C -0.072; I -0.051; R -0.005; Y -0.121; F -0.022; H -0.041; E -0.032; A 0.043; W -0.479; T 0.059; G 0.033
L44: D 0.033; M -0.059; N 0.058; P 0.08; E 0.058; V 0.02; R -0.024; T 0.035; G -0.047; W 0.115; S -0.047; H -0.035; C 0.002; Y 0.033; F -0.006; A 0.071; Q -0.037; I 0.033
Q37: C -0.076; M -0.104; Y -0.118; W -0.082; G 0.004; I -0.104; K -0.008; R 0.005; D 0.054; A -0.058; P -0.185; T 0.021; H -0.047; L -0.08; V -0.001; S -0.142; E 0.019; F -0.016
S42: Y -0.047; N -0.009; A -0.011; K 0.061; I -0.035; F -0.049; M -0.07; R -0.056; V -0.058; W -0.098; P 0.008; G -0.023; T 0.084; D -0.046; H -0.087; C -0.074; E 0.116
